Source: publication PMC11813165
Like-named read-outs stand apart in the source and are kept apart here.

Columns and labels:
[1] = target: NiV (Bangladesh strain) L (full-length, with C-terminal triple strep tag) (Nipah virus (Bangladesh strain)) (UniProt Q997F0); test: mass photometry
[2] = target: NiV (Bangladesh strain) L (full-length, with C-terminal triple strep tag) (Nipah virus (Bangladesh strain)) (UniProt Q997F0); test: mass photometry; remark: listed apart in the source

For “NiV (Bangladesh strain) P (full-length, with N-terminal polyhistidine tag) (from UniProt Q4VCQ1 1-709) (natural protein)”, the stoichiometry N [1] was 4 and the stoichiometry N [2] was 3.
